Results on four molecules are retold here after patent US20190248902A1 (published 2019).

One test concerns the target T1, Soluble ASGR-1 (human, UniProt P07306 62-291, biotinylated).
T1 construct: Soluble recombinant protein; also called recombinant, soluble ASGR-1 biotinylated protein
T1 sequence: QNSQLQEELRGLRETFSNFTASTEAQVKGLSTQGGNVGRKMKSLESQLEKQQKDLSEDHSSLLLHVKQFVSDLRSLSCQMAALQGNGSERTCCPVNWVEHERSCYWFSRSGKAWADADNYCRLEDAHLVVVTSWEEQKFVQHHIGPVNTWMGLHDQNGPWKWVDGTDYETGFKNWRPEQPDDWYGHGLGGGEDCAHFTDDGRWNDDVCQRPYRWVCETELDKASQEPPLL
Description: limited antigen binding assay; biotinylated soluble ASGR-1 coated at 2.5 ng/mL on LumAvidin beads, FACS.

Test [1] addresses T2, Dog ASGR-1 (dog).
T2 construct: Expressed on HEK 293 cells or as membrane prep on beads; cDNA GenBank XM_546579
T2 chain: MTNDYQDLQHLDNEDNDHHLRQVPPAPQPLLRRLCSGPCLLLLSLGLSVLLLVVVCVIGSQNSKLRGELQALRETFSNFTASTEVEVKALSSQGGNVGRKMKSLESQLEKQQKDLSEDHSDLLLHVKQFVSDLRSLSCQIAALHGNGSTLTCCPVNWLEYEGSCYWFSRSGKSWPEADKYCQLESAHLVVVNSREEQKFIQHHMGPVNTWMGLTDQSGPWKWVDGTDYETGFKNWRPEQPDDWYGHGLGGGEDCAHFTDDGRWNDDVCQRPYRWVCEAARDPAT
Description: FACS on transfected HEK 293 cells or membrane preps on beads; binding = signal at least 2x irrelevant IgG. The method in brief: (§1)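 Antibodies at normalized concentrations bound 1 h at 4° C to HEK 293 cells expressing each antigen, then Alexa Fluor 647 anti-Fc plus 7-AAD 15 min at 4° C, flow cytometry; empty-vector cells as negative. Alternatively, species ASGR-1 membrane preps on streptavidin beads, antibody 1 h RT, Alexa Fluor 488 anti-Fc; FACS buffer with 1 mM CaCl2 throughout.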

Another test concerns the target T3, Mouse ASGR-1 (mouse, UniProt P34927 1-284).
T3 construct: Expressed on HEK 293 cells or as membrane prep on beads; cDNA GenBank BC022106.1; also called muASGR-1; mASGR-1
T3 sequence: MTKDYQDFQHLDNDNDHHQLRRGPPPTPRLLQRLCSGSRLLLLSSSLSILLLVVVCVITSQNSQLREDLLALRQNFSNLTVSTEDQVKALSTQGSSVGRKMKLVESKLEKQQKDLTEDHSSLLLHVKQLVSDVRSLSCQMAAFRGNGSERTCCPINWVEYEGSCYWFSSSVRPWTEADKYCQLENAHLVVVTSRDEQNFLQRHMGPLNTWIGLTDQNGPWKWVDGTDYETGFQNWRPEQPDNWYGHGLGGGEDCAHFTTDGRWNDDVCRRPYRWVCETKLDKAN
Description: FACS on transfected HEK 293 cells or membrane preps on beads; Y = signal at least 2x irrelevant IgG. In a few lines:
as §1

For another test, the target named is T4, Rat ASGR-1 (rat, UniProt P02706 1-284).
T4 construct: Expressed on HEK 293 cells or as membrane prep on beads; cDNA GenBank NM_012503
T4 sequence: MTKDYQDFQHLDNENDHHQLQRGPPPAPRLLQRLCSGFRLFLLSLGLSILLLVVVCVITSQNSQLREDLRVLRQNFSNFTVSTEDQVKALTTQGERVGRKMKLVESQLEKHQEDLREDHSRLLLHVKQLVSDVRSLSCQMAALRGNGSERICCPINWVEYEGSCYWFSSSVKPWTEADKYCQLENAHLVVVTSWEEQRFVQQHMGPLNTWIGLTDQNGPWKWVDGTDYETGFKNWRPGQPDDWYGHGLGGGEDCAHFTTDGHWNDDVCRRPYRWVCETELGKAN
Described as above. The method in brief: as §1

Test [2] has as its target T2, Dog ASGR-1. Described as above. The method in brief: as §1

B1: 4H6 (antibody, V domains shown)
VH: QVQLVQSGAEVKKPGASVKVSCKASGYTFTDYYLHWVRQAPGQGLEWMGWIHPNSGGTNYAQKFQGRVTMTRDTSISTAYMGLSSLRSDDTAVYYCARDGTSSFDYWGQGTLVTVSS
VL: DIQMTQSPSSVSASVGDRVTITCRASQGISRWLAWYQQKPGKAPKLLIYGASSLQSGVPSRFSGSGSGTDFTLTISSLQPEDFAIYYCQQANSFPFTFGPGTKVDIK
notes: Tested as hybridoma supernatant at normalized concentration
In the case of B1, the “FACS Geomean” value with Soluble ASGR-1 is 2990 FACS Geomean. Also, the binding result is “no binding” in the test with Dog ASGR-1 [1], “binds” with Mouse ASGR-1 and “binds” with Rat ASGR-1.

B2: 72G9 (antibody, V domains shown)
VH: EVQLVESGGGLVKPGGSLRLSCAASGFTFSSYSMNWVRQAPGKGLEWVSSISGSSSYIYYADSVKGRFTISRDNAKNSLYLQMNSLRAEDTAVYFCARGGSRGFDPWGQGTLVTVSS
VL: DIQMTQSPSSLSASVGDRVTITCRASQSITSYLNWYQQKPGKAPKLLIYTASSLQSGVPSRFSGSGSGTDFTLTISSLQPEDFATYYCQQSHSFPFTFGPGTKVDIK
notes: as for B1
For the molecule B2, the “FACS Geomean” value in the test with Soluble ASGR-1 came out at 34000 FACS Geomean. Moreover, the binding result in the test with Dog ASGR-1 [2], with Mouse ASGR-1 and with Rat ASGR-1 was “binds” in each case.

B3: 184E7 (antibody, V domains shown)
VH: QVQLVQSGAEVKTPGASVKVSCRASGYTFTSYNMHWVRQVPGQGLEWMGWINPNNGGSNYTQKFQGRVTMTRDTSISTAYMELSRLRSDDTAVYYCARKFGDWGQGTLVTVSS
VL: DIQMTQSPSSRSASIGERVTITCRASQGISNYLAWIQQKPGTAPKSLIYAASSLQSGVSSRFSGSGFGTDFTITISSVQREDFATYYCQQYNGYPFTFGHGTKVDIK
notes: as for B1
For B3, the “FACS Geomean” value with Soluble ASGR-1 came out at 40200 FACS Geomean. The binding result with Dog ASGR-1 [2], with Mouse ASGR-1 and with Rat ASGR-1 was “binds” in each case.

B4: 4B1 (antibody, V domains shown)
VH: QVQLQESGPGLVKPSETLSLTCSVSGDSISSYSWSWIRQPAGKGLEWIGRIYTSGSTNYIPSLKSRITMSVDTSKKQFSLKLSSVTAADTAVYYCARDLKSSGCLFFDYWGQGTLVTVSS
VL: DIQMTQSPSSLSASVGDRVTITCRASHTIRTYLNWYQQKPGKAPKLLIYAASSLQSGVPSRINGSGSGTDFTLTITNLQPEDFATYYCQQSYNISFTFGPGTKVDIK
notes: as for B1
Turning to B4, in the test with Soluble ASGR-1, the “FACS Geomean” value was 10100 FACS Geomean. The binding result with Dog ASGR-1 [2], in the test with Mouse ASGR-1 and with Rat ASGR-1 was “binds” in each case.
